US20130195871A1 (AbbVie / Abbott, published 2013)

Columns and labels:
[1] = target: T1, Recombinant Human MSP Receptor ECD-His tag (human, UniProt Q04912 25-957); assay: SPR (Biacore), N-terminal VD;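 also: capture of antibodies or DVD-Ig proteins on an anti-mouse IgG chip surface, recombinant antigen injected at 10–200 nM in HBS-EP running buffer at 25 °C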
T1 construct: extracellular domain; bought reagent; also called RON

[2] = target: T2, Recombinant Human ErbB3/FC Chimera-His tag (human, UniProt P21860 20-643); assay: SPR (Biacore), C-terminal VD;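 also: surface plasmon resonance with DVD-Ig proteins captured on an anti-IgG chip and recombinant antigen flowed over in HBS-EP buffer, Langmuir global fit, KD taken as koff/kon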
T2 construct: bought reagent
Procedure: The BIACORE assay (Biacore, Inc, Piscataway, N.J.) determined the affinity of antibodies or DVD-Ig proteins with kinetic measurements of on-rate and off-rate constants. Binding of antibodies or DVD-Ig proteins to a target antigen (for example, a purified recombinant target antigen) was determined by surface plasmon resonance-based measurements with a Biacore® 1000 or 3000 instrument (Biacore AB, Uppsala. Sweden) using running HBS-EP (10 mM HEPES [pH 7.4], 150 mM NaCl, 3 mM EDTA, and 0.005% surfactant P20) at 25° C. […] For example, approximately 5000 RU of goat anti-mouse IgG, (Fcγ), fragment specific polyclonal antibody (Pierce Biotechnology Inc, Rockford, Ill.) diluted in 10 mM sodium acetate (pH 4.5) was directly immobilized across a CM5 research grade biosensor chip using a standard amine coupling kit according to manufacturer's instructions and procedures at 25 μg/ml. Unreacted moieties on the biosensor surface were blocked with ethanolamine. Modified carboxymethyl dextran surface in flowcell 2 and 4 was used as a reaction surface. Unmodified carboxymethyl dextran without goat anti-mouse IgG in flow cell 1 and 3 was used as the reference surface. For kinetic analysis, rate equations derived from the 1:1 Langmuir binding model were fitted simultaneously to association and dissociation phases of all eight injections (using global fit analysis) with the use of Biaevaluation 4.0.1 software. Purified antibodies or DVD-Ig proteins were diluted in HEPES-buffered saline for capture across goat anti-mouse IgG specific reaction surfaces. Antibodies or DVD-Ig proteins to be captured as a ligand (25 μg/ml) were injected over reaction matrices at a flow rate of 5 μl/minute. The association and dissociation rate constants, kₒₙ (M⁻¹s⁻¹) and koff (s⁻¹) were determined under a continuous flow rate of 25 μl/minute. Rate constants were derived by making kinetic binding measurements at different antigen concentrations ranging from 10-200 nM. The equilibrium dissociation constant (M) of the reaction between antibodies or DVD-Ig proteins and the target antigen was then calculated from the kinetic rate constants by the following formula: KD=koff/kₒₙ. Binding was recorded as a function of time and kinetic rate constants were calculated.

[3] = target: T3, ErbB3 on the cell surface (human, UniProt P21860 20-1342); assay: flow cytometry on cells, 2 ug/mL;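 also: cells stained for 30 to 60 min on ice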
T3 construct: whole, on cells
Procedure: Stable cell lines overexpressing a cell-surface antigen of interest or human tumor cell lines were harvested from tissue culture flasks and resuspended in phosphate buffered saline (PBS) containing 5% fetal bovine serum (PBS/FBS). Prior to staining, human tumor cells were incubated on ice with (100 μl) human IgG at 5 μg/ml in PBS/FCS. 1-5×10⁵ cells were incubated with antibody or DVD-Ig (2 μg/mL) in PBS/FBS for 30-60 minutes on ice. […] After 30 minutes incubation on ice, cells were washed twice and resuspended in PBS/FBS. Fluorescence was measured using a Becton Dickinson FACSCalibur (Becton Dickinson, San Jose, Calif.).
The geometric mean is the n root of the multiplication product of n fluorescent signals (a1×a2×a3 . . . an). With log-transformed data the geometric mean is used to normalize the weighting of the data distribution.

| Binder | Kd [1] | koff [1] | kon [1] | binding result [2] | GEO MEAN [3] | binding result [1] |
| --- | --- | --- | --- | --- | --- | --- |
| DVD2318 (bispecific antibody, DVD-Ig, outer AB005 / inner AB063) VH: EVQLVQSGGGLVKPGGSLRLSCAASGFTFSSYAMHWVRQAPGKGLEWVAVISYDGSNKYYADSVKGRFTISRDNSKNTLYLQMNSLRAEDTAVYYCARFSGWPNNYYYYGMDVWGQGTTVTVSSASTKGPEVQLVESGGGLVQPGGSLRLSCAASGFTFSIYSMNWVRQAPGKGLEWVSYISSSSSTIYYADSVKGRFTISRDNAKNSLYLQMNSLRDEDTAVYYCARDRGDFDAFDIWGQGTMVTVSS VL: DVVMTQSPLSLPVTPGEPASISCRSSQSLLHSNGFNYVDWYLQKPGQSPHLLIYFGSYRASGVPDRFSGSGSGTDFTLKISRVEAEDVGVYYCMQALQTPPWTFGQGTKVEIRRTVAAPDIQMTQSPSSLSASVGDRVTITCQASQDITNYLNWYQQKPGKAPKLLIYDASNLETGVPSRFSGSGSGTDFTFTISSLQPEDIATYNCQQCENFPITFGQGTRLEIK | 17 nM | 0.00092 s⁻¹ | 55000 M⁻¹ s⁻¹ | no binding (tested: 10-200 nM) |  |  |
| AB062 (antibody, V domains shown, parent antibody) VH: QVQLQQWGAGLLKPSETLSLTCAVYGGSFSGYYWSWIRQPPGKGLEWIGEINHSGSTNYNPSLKSRVTISVETSKNQFSLKLSSVTAADTAVYYCARDKWTWYFDLWGRGTLVTVSS VL: not shown |  |  |  |  | 132 |  |
| DVD2322 (bispecific antibody, DVD-Ig, outer AB005 / inner AB062) VH: EVQLVQSGGGLVKPGGSLRLSCAASGFTFSSYAMHWVRQAPGKGLEWVAVISYDGSNKYYADSVKGRFTISRDNSKNTLYLQMNSLRAEDTAVYYCARFSGWPNNYYYYGMDVWGQGTTVTVSSASTKGPQVQLQQWGAGLLKPSETLSLTCAVYGGSFSGYYWSWIRQPPGKGLEWIGEINHSGSTNYNPSLKSRVTISVETSKNQFSLKLSSVTAADTAVYYCARDKWTWYFDLWGRGTLVTVSS VL: DVVMTQSPLSLPVTPGEPASISCRSSQSLLHSNGFNYVDWYLQKPGQSPHLLIYFGSYRASGVPDRFSGSGSGTDFTLKISRVEAEDVGVYYCMQALQTPPWTFGQGTKVEIRRTVAAPDIEMTQSPDSLAVSLGERATINCRSSQSVLYSSSNRNYLAWYQQNPGQPPKLLIYWASTRESGVPDRFSGSGSGTDFTLTISSLQAEDVAVYYCQQYYSTPRTFGQGTKVEIK | 17 nM | 0.00087 s⁻¹ | 51000 M⁻¹ s⁻¹ | no binding (tested: 10-200 nM) |  |  |
| DVD2334 (bispecific antibody, DVD-Ig, outer AB034 / inner AB062) VH: QVQLQESGPGLVKPSEILSLTCTVSGGSISSHYWSWVRQPPGKGLEWIGYIYYSGSTNYNPSLKSRVTISVDTSKNQFSLNLSSVTAADTAVYYCARIPNYYDRSGYYPGYWYFDLWGRGTLVTVSSASTKGPQVQLQQWGAGLLKPSETLSLTCAVYGGSFSGYYWSWIRQPPGKGLEWIGEINHSGSTNYNPSLKSRVTISVETSKNQFSLKLSSVTAADTAVYYCARDKWTWYFDLWGRGTLVTVSS VL: QAVLTQPSSLSAPPGASASLTCTLRSGFNVDSYRISWYQQKPGSPPQYLLRYKSDSDKQQGSGVPSRFSGSKDASANAGILLISGLQSEDEADYYCMIWHSSAWVFGGGTKLTVLRQPKAAPDIEMTQSPDSLAVSLGERATINCRSSQSVLYSSSNRNYLAWYQQNPGQPPKLLIYWASTRESGVPDRFSGSGSGTDFTLTISSLQAEDVAVYYCQQYYSTPRTFGQGTKVEIK | 4.9 nM |  |  | no binding (tested: 10-200 nM) |  |  |
| DVD2320 (bispecific antibody, DVD-Ig, outer AB005 / inner AB116) VH: EVQLVQSGGGLVKPGGSLRLSCAASGFTFSSYAMHWVRQAPGKGLEWVAVISYDGSNKYYADSVKGRFTISRDNSKNTLYLQMNSLRAEDTAVYYCARFSGWPNNYYYYGMDVWGQGTTVTVSSASTKGPEVQLLESGGGLVQPGGSLRLSCAASGFTFSHYVMAWVRQAPGKGLEWVSSISSSGGWTLYADSVKGRFTISRDNSKNTLYLQMNSLRAEDTAVYYCTRGLKMATIFDYWGQGTLVTVSS VL: DVVMTQSPLSLPVTPGEPASISCRSSQSLLHSNGFNYVDWYLQKPGQSPHLLIYFGSYRASGVPDRFSGSGSGTDFTLKISRVEAEDVGVYYCMQALQTPPWTFGQGTKVEIRRTVAAPQSALTQPASVSGSPGQSITISCTGTSSDVGSYNVVSWYQQHPGKAPKLIIYEVSQRPSGVSNRFSGSKSGNTASLTISGLQTEDEADYYCCSYAGSSIFVIFGGGTKVTVL | 25 nM | 0.00094 s⁻¹ | 37000 M⁻¹ s⁻¹ | no binding (tested: 10-200 nM) |  |  |
| DVD2274 (bispecific antibody, DVD-Ig, outer AB080 / inner AB062) VH: EVQLVESGGGLVQPGGSLRLSCAASGFTFTDYTMDWVRQAPGKGLEWVADVNPNSGGSIYNQRFKGRFTLSVDRSKNTLYLQMNSLRAEDTAVYYCARNLGPSFYFDYWGQGTLVTVSSASTKGPQVQLQQWGAGLLKPSETLSLTCAVYGGSFSGYYWSWIRQPPGKGLEWIGEINHSGSTNYNPSLKSRVTISVETSKNQFSLKLSSVTAADTAVYYCARDKWTWYFDLWGRGTLVTVSS VL: DIQMTQSPSSLSASVGDRVTITCKASQDVSIGVAWYQQKPGKAPKLLIYSASYRYTGVPSRFSGSGSGTDFTLTISSLQPEDFATYYCQQYYIYPYTFGQGTKVEIKRTVAAPDIEMTQSPDSLAVSLGERATINCRSSQSVLYSSSNRNYLAWYQQNPGQPPKLLIYWASTRESGVPDRFSGSGSGTDFTLTISSLQAEDVAVYYCQQYYSTPRTFGQGTKVEIK |  |  |  | no binding (tested: 10-200 nM) |  |  |

Further lines, results first:

| Kd [1] | koff [1] | kon [1] | binding result [2] | GEO MEAN [3] | binding result [1] | Binder |
| --- | --- | --- | --- | --- | --- | --- |
|  |  |  |  | 128 |  | AB063 (antibody, V domains shown, parent antibody) VH: EVQLVESGGGLVQPGGSLRLSCAASGFTFSIYSMNWVRQAPGKGLEWVSYISSSSSTIYYADSVKGRFTISRDNAKNSLYLQMNSLRDEDTAVYYCARDRGDFDAFDIWGQGTMVTVSS VL: DIQMTQSPSSLSASVGDRVTITCQASQDITNYLNWYQQKPGKAPKLLIYDASNLETGVPSRFSGSGSGTDFTFTISSLQPEDIATYNCQQCENFPITFGQGTRLEIKR |
|  |  |  | no binding (tested: 10-200 nM) |  | no binding (tested: 10-200 nM) | DVD2332 (bispecific antibody, DVD-Ig, outer AB034 / inner AB116) VH: QVQLQESGPGLVKPSEILSLTCTVSGGSISSHYWSWVRQPPGKGLEWIGYIYYSGSTNYNPSLKSRVTISVDTSKNQFSLNLSSVTAADTAVYYCARIPNYYDRSGYYPGYWYFDLWGRGTLVTVSSASTKGPEVQLLESGGGLVQPGGSLRLSCAASGFTFSHYVMAWVRQAPGKGLEWVSSISSSGGWTLYADSVKGRFTISRDNSKNTLYLQMNSLRAEDTAVYYCTRGLKMATIFDYWGQGTLVTVSS VL: QAVLTQPSSLSAPPGASASLTCTLRSGFNVDSYRISWYQQKPGSPPQYLLRYKSDSDKQQGSGVPSRFSGSKDASANAGILLISGLQSEDEADYYCMIWHSSAWVFGGGTKLTVLRQPKAAPQSALTQPASVSGSPGQSITISCTGTSSDVGSYNVVSWYQQHPGKAPKLIIYEVSQRPSGVSNRFSGSKSGNTASLTISGLQTEDEADYYCCSYAGSSIFVIFGGGTKVTVL |
|  |  |  |  | 127 |  | AB067 (antibody, V domains shown, parent antibody) VH: EVQLLESGGGLVQPGGSLRLSCAASGFTFSHYVMAWVRQAPGKGLEWVSSISSSGGWTLYADSVKGRFTISRDNSKNTLYLQMNSLRAEDTAVYYCTRGLKMATIFDYWGQGTLVTVSS VL: QSALTQPASVSGSPGQSITISCTGTSSDVGSYNVVSWYQQHPGKAPKLIIYEVSQRPSGVSNRFSGSKSGNTASLTISGLQTEDEADYYCCSYAGSSIFVIFGGGTKVTVLG |
